Test results reported in the DeepSol protein solubility set.

experiment: soluble on expression in E. coli; label from the status in PepcDB or PDB records

| Sequence | soluble on expression in E. coli |
| --- | --- |
| MGSDKIHHHHHHMIGVAEVVLDVRDLRIYYRTLYGYVKAVDGVSFDIKRGEILGIAGESGCGKSTLGNGLILLKPPMKYMGGEAILDGKNIMALSPKELRKVRYEKISIIPQYAMDAMNPTKKIKQIIDDLLHEHGESFERKKDVIEERLEIVNLGKKVLNMYPIELSGGMKQRMVMVISTLMNPDVLIADEITSALDVSSQRSVIQMLYEMREKEIMGSLAFITHDLSVLYQIADKVMVLYAGRVAEISPMEDIIQEPLHPYTKMLLSSLPKIGVRYSQTKLKGIPGYPPSLLNIGPGCRFRDRCPYAFEKCEQDPPVFDVDGRKVSCWLFERGDAN | not soluble |
| GPGSMLRRCAPLLIGVEGDTFVSAIKDKQYLAHRLAILGKEDPNFKAQCMSDDDIKRFTTSLGSAESLFNKQAGAIPTNVVDEETGRVIGSTQPDPTRYGDWEVNGRCYDF | soluble |
| MFEARLTDVRANKLAQAWRLAYEQADGKRRRAMLGGLAQVGAGMQGDGAQGTRLFKRFNALPDGLRFLVALRADMLRWRKQVAGLQALDKELEALLSAWFDVGLLELRPLTWDSPASLLEKLILYEAVHEIRSWDDLRHRVAGDRRCYAYFHPQMPDVPLIFVEVAFSAQMADNVQALLDTSAPPQDLDKARWAIFYSISNTQPGLRGISFGNFLLKRVIDRLLQELPKLKFFATLSPIPGFADWLSRLDAQEVEQAVRDKARTRSGAPDGARWVARLARAATGKPSEVVQRAGLRLAARYLQAMRAGQPLDPVARFHLGNGARIERLNWAADTSAKGLAQSCGMMVNYLYELGDLDGNLARLNEGKPQVSRGIARLGAAALEHHHHHH | soluble |
| GPGSMQAPSEDDVARKEALKRRVEEHMLWKMTFFQSRPPPPFIPKCRRRPEPIANAPVHSFYKRALEIVSAEKEHMSSFCSSASPPTMTKTEPPEGDGAKSKQDVWKHKMMLEMERRNPYTDINIRTDPRSTVVVSSLHPKSLEEDIRLFGEQFGRVVSVRLICDHNGKSRRYGFVQFGLEAEARKAVAHSRKRRLHGHAVVMEMERGRLDRDFLPKRLAEAKRQIEGSSSLCSDKRQRMEGSVKCPPAVAAGRSLPIPVSDTRDEVDAFLDDIMNLT | not soluble |
| MDWMPLGDYETFRHWSGKPRAWGPQESGWRAWFGGKIVDGLCEVLDEHLAVRRRGVPAAIGCVPWLSSEAVAETLLALSVFCVVIDKGTSFPSRLRNPDKGFPNVALLRLRDMAPSEHGSRCSSARGRLCLSMS | not soluble |
| MSEEIKKIEEVAEQDKAPKVPTTEPPVDVPAPVTEEAPKVEEAVAEIAAPAAAEGETATAAAAAPEEKKKSGGVARRFTFNKRWGKHRDAEASTPKEPEAPKDPKEDVLGWIAQQIPQAVHKANYQVIDWVQKTAIPEEGERKTIPGKDQATTRNQFIGFFKDGDVLAKLANALEPGAVEVAAAEENADAAAQKEVQKKNIDAFGAWAQKTLGTEAAPVTNEDLLEKGKAGYTAVFQTLWQLGVQAKEKFDKEGFNVDTIVQLANSVVKSGLLTTILGFFRRNRQAAAAVEEPKDETAAAEGAGEAKEEGATGEVADTADEPVAVKQETSAPAAVAAN | not soluble |
| MGSDKIHHHHHHMSWRYALKNYVTSPETVNDDTVTYFDDKVSIIRDSFPKSECHLLILPRTMQLSRSHPTKVIDAKFKNEFESYVNSAIDHIFRHFQEKFRIKKSDDDKDPCWDDILKDKNKFVRNFVQVGIHSVPSMANLHIHVISKDFHSVRLKNKKHYNSFNTGFFISWDDLPLNGKNLGTDKEIETTYLKEHDLLCCYCQRNFSNKFSLLKKHLELEFNSHFELK | not soluble |
| EDKIMSYNAFFWMWVHDMLIDSIKWRDEHGRCINKDKGKTCIKGCNKKCICFQKWVEQKKTEWGKIKDHFRKQKDIPKDWTHDDFLQTLLMKDLLLEIIQDTYGDANEIKRIEALLEQAGVGGIDFAALAGLYTKGFVAEKDTTIDKLLQHEQKEADKCLKTHTDDTCPPQEDRSVARS | soluble |
| GPGSMAMRDVIGDPDLLLRKTPANPKYEHVKPVVETGMTAELARFMKNTGAALYRVSGEPFMRIRTRLIGDFVQKQQSQSGEIKDGGFAHPMDEYRAPDTQLPKEYLILDVRSEEEYAACHIKGALHYPKRRMVHAINPLLPEMFNFKNKENKLIVLYDLEEEMTIAQGIGQNVFEKGIDNLAVMTGGLREFVQDYADCIVGESPVPIVPRDTRLLKRAEAVSAARSETQRSAFSHKPKSLSNSLAKPRPR | soluble |
| MSLEDIWHKADELCEKNIKIVIRNLGLNLTISFQCYSHLLQNIPSMLGSIPFQRILSERKNKFDNAIVVSAGPSLTKQLPLLKAYQDKAVVFCADGALSMLEKEGVVPDYVLNIDFEDLPLRFFKNKQNKLSLNILSCATHPSLVHFLDNKSVILRDDPLYQSFNLNDFGYIDTGTHVSHFSYTLALALGFKNIIMIGQDLAFDEEGNSHSKGFDFGEKFEEEHKKYKLKTQAYGGKGEVLTHITWNDYRVKLEYLFACNDQKAKFYNATEGGARINFTEELSFKECCEKLLTKEKPKFELPKSLTKNRSDKLLAKFKEKIQKDQENAKRFLDDEGHHHHHH | soluble |
| MGSDKIHHHHHHMIELKNVSMIFNPGTVNENQAISNISLKVREGDFITVIGSNGAGKSTLFNLIAGTITPSSGSIFLNDRNITREPEYKRARYIGRIFQNPLLGTASTMSLEDNMMITYKKGFKWLKRSLNHKMREYFRTELVQLKMGLEDRMKENLALFSGGQRQALTLLMMVLSRPDLILLDEHTAALDPKNAQIVLELTDKFIREYNLTAMMITHNMSHAIEYGNRLLMMDKGEIIFEAEGEEKRALTVEKLIDKFHQIRHTSFENDRTLLSDD | not soluble |
| MNKLDTSQLKIASMGGGHGLFQTLRAVRQLNPASIDAIVTVADDGGSSGRIRRELGQIPPGDLRMALAALAPFDDEGLQWETLLQHRFGGHGALAGHAVGNLIIAGLCDTLGSEIAALDAVAKVIKAEGRVLPACAEPLEIAAEVSGLDDDPRIMREVIGQVAVASTPGTVRRVRLIPERPEATEESVEAIENADLVTLGPGSWFSSVIPHVLVPGIPTALATTKALRVVVLNLSPEPGETAGFTAERHIHILSQHAQTLRADVILVDEGLIPHKGERVHLERAAAVLGAQISYHDLSETDPSGRRIHRHDPAKLAEALRLQLLEHHHHHH | soluble |
| MGSDKIHHHHHHMNQMQQWKPDFLGEGYQNLTIELGDDPDNETDVVTTVVRYNPDNHADESFAARPALLWVHGMTDYFFHTEFAEFFHNAGFAVYGIDLRKCGRSYRPGQQWHYTSDLAHYFPDLTAAAEVISSTHPELVPVAHSTGGLIVPLWMSQMRTSNPAAIEKIPALVLNSPWLDMMYPPLFIKLITPMVRVLGKRSPTTIIPGGGLGAYGKSIHKNFYGEWDFDTTIKPVEGHKKSIGWLRAVMAGQAEIHHDHVNVGVDVLTLCSNKSWLKSEYTEDTNTSDAVLDVKHIQKWAPHLSSPSSRVDVEIIDNARHDIFLSRKPARDHASEVLNNWLQSKLSSLKPSQ | not soluble |
| MAHHHHHHMESINRNNNINKNEIDNKINNNNNMDVPIEGNEKSQEGDIIGQFGVGFYSSFVVSNKVEVFTRSYDNNSSKGYHWVSYGNGTFTLKEVDNIPKGTKIICHLKDSCKEFSNIQNVQKIVEKFSSFINFPVYVLKKKKILQTRKDIEQNELNDHTQQNELNHHNDQNDHTQQNELNHHNDQNDHTQQNELNHHNDQNDHTQQNELNHHVEHHKNVVENKNDEYEKNMDNRTSDNIKPESLSKQNDYENMNQCNNEETVLNRTKELNEEHIVEEILVNKQKPLWCKDNVTEEEHRHFFHFLNKNKSYNEDNKSYLYNMLYKTDAPLSIKSVFYIPEEAPSRLFQQSNDIEISLYCKKVLVKKNADNIIPKWLYFVKGVIDCEDMPLNISRENMQDSSLINKLSRVVVSKILKTLEREADINEEKYLKFYKNYNYNLKEGVLEDSNKNHYKNSLMNLLRFYSINQNKFISLKQYVNNFRNNQKNIYYFSANDKNVALNSPYMEPFKKQNIDVLLLLEEIDEFVLMNLQTYKDAKFVSIDTSQNEDFDEAVLNTNKNDNEKKQSIFFNDEQKKELQAYFKQVLGSKCSDVKFSERLTTSPAVVTGFLSPTLRKVMKATMKNSDFNDNTNNSNNMNMFQNLPATLELNPSHTIVTSIYHLKNTNQEVAKLLVQQLYDNACIAAGILEDPRSLLSKLNELLLLTARYAYHYEKKDIQENTKDQPIDVKDNTMAIDNIVNTKENNTNDDSVMKEAQSSNL | not soluble |
| MIVHVVKRGETLWQLAQRYGVPLERIVAANELSDPNRLAVGQALVIPVPYRYHTVRTGETLWQIARQYGVAVEAIIQANRITNPSLLYPGTTLFIPARIHTVRSGETLAQIASFYGVTVQQLIEVNDITDPNRIVPGQRLIIPPAKPLIEVNAFTVDQGEKGAEQVREVGRHLTYAAPFAYTIRADGGLNPINDTAFIQAAYAARVVPMMTITNFTYQDPGSRLAQMILADVALQTRLLDNVIQVMRAKGYRTLNVDFENVYPSDRKRYNEFLQRAANRLHAEGYVLSTSLAPKISAEQKGLLYEAHDYPAHGRIADFVVLMTYEWGYRFGPPQAISPVNQIRRVLDYAVTAIPRSKIMMGFQIYARDWVLPHVQGQEAETFSPKEALERAVRYGASIQYDAAAASPFYRYTDEQGRQHEVWFEDARSALAKFELVKEYGLRGISYWVLGYPYPENWVLLEDNFRIRKRG | not soluble |
| GMTQPHQIILLAHGSSDARWCETFEKLAEPTVESIENAAIAYMELAEPSLDTIVNRAKGQGVEQFTVVPLFLAAGRHLRKDVPAMIERLEAEHGVTIRLAEPIGKNPRLGLAIRDVVKEELERSEH | soluble |
| MKVVGVTSCIAGLAHTPMAAKALEKAGVKLGHDVKIEQQGAMGTIDEITPAEVSAADVVIIAADKVIDGEDRFKGKPVVRVKIGQCVANGEAVLSKVVAAIEARKQKEAN | not soluble |
| MSLQGGIRFSDGIAAVADNEVITRRRLAEAVAEAKANLPKDAQISESELSRQVLMQLVNQSLIVQAGKRRNIQASEAEIDAVVAKNPALKNLSPAQRRDFADNIIAEKVRQQAVMQNSRVSEAEIDAFLEQAQKQGITLPEGAPLRQYRAQHILIKADSENAAVGAESTIRKIYGEARSGTDFSSLARQYSQDASAGNGGDLGWFADGVMVPAFEEAVHALKPGQVGAPVRTQFGWHIIKLNEVRDAGTPQERIRNSVRQYIFQQKAEQATVNLLRDLHSGAYVDIREGHHHHHH | soluble |
| MSLIKVLIVEDDPMVAMLNAHYLEQVGGFELVQAVNSVKSAIEVLEESRIDLVLLDIFMPEETGFELLMYIRNQEKEIDIMMISAVHDMGSIKKALQYGVVDYLIKPFTFERFKEALTIYREKLTFMKEQQKISQSELDSLILQKEKREPTVTKELPKGLTKQTLQLIWQKIELLNGRAFTTDEMSQLVGISRVSIRKYVMFLTDIGVLENEMMYQHVGRPVSKLRCVDQKKIEFYVEGHHHHHH | soluble |
| MTWETVIGLEIHVQLNTKSKIFSGASTAFGAEPNAHASVVECALPGVLPVMNREVVEKAIKLGLALDAKINQKNVFDRKNYFYPDLPKGYQISQLDLPIVEHGKLEIVVGDDVKTINVTRAHMEEDAGKSVHEGLNGATGIDLNRAGTPLLEVVSEPEMRSAAEAVAYAKALHSLVTWLDICDGNMAEGSFRVDANVSVRPKGQEEFGTRREIKNLNSFRFLEQAINYEAEAQIEILEDGGKVQQATMLFDPEKGETRVMRLKEDAHDYRYFPDPDLLPVIISDAQMQKAKAEMPELPKEMAARFVADYGVSEYDARLLTASRAQAAYFEEAAKESGQGKLTANWMNGELAAALNKEGMELADSPITAPRLAALVGKIADGTLSSKLAKKAFEAMWAEPEATIAEIIEKHGLQQMTDTGEIEAMVDEVLANNAKAVEQFKSGNEKALNAIVGQVMKASKGKANPAQVQELIKAKLA | not soluble |
